Experimental data taken from patent US20150266957A1 (Regeneron, published 2015).
Substitutions are numbered along the chain they refer to. Names and notes keep the numbering of the source.

B1: H4H6698P (antibody, human IgG4, V domains shown)
VH: EVQLVESGGGLVKPGGSLRLSCAASGFTFSNVWMTWVRQAPGKGLEWVGRIKTKTDGGTTDYAAPVKGRFTISRDDSKNSLYLQMSSLKTEDTAVYYCTTGHTSYWGQGTLVTVSS
VL: not shown
B2: H4H6701P (antibody, human IgG4, V domains shown)
VH: B1 VH with V32A, I51T, D56E, S80T, S86N, T103I, S104F
VL: not shown
B3: H4H6385N (antibody, human IgG4, V domains shown)
VH: EVQVVESGGGLVKPGGSLRLSCAASGFTFSNVWMTWVRQAPGKGLEWVGRIKSKIEGGTTDYAASVKGRFTISRDDSKNTQSLQMNSLKSEDTAVYYCSTGHLAYWGQGTLVIVSS
VL: DIVMTQTPLSSPVSLGQPASISCRSSQSLVHSDGSTYLSWLQQRPGQPPRLLIYKISNRFSGVPDRFSGSGAGTDFTLKISRVEAEDVGIYYCMQATQFPTFGQGTKVEIK
notes: Form used in SPR and calcium assays; also called H4HM6385N
B4: H4H6706P (antibody, human IgG4, V domains shown)
VH: EVQLVESGGGLIKPGGSLRLSCAASGFTFSNAWMSWVRQAPGKGLEWVGRIKRKSDGGTTDYAAPVKGRFTISRDDSKNTMYLQMNSLKTEDTAVYYCTPSGSYYGYWGQGTLVTVSS
VL: not shown
B5: H4H6669P (antibody, human IgG4, V domains shown)
VH: B4 VH with I12V, S35T, S55N, T60I, M81L, K89R, T99I
VL: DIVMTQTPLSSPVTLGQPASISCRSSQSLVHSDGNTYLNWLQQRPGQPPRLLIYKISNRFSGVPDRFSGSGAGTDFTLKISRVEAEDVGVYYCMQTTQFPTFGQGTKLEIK
B6: H4H6671P (antibody, human IgG4, V domains shown)
VH: B4 VH with I12V, R53S, K54R, M81L, V95L, T99S, S101P, Y104H
VL: not shown
B7: H2M6385N (antibody, V domains shown)
VH: B3 VH
VL: B3 VL
notes: the prefix H2M is not spelled out
B8: H4H6663P (antibody, human IgG4, V domains shown)
VH: EVQLVESGGGLVKPGGSLRLSCAASGFTFSNAWMSWVRQVPGKGLEWVGRIKSKTDGGTTDYAAPVKGRFTISRDDPKNTLYLQMYSLKTEDTAVYYCTTRSMQYWGQGTLVTVSS
VL: B3 VL with S14T, S35Y, S39N
B9: H4H6680P (antibody, human IgG4, V domains shown)
VH: B4 VH with I12V, A24V, S35T, A40T, S55N, D56E, T60I, M81L
VL: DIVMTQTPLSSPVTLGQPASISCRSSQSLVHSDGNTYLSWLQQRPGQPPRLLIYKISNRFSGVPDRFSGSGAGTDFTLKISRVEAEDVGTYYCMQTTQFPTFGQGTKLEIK

Biological target: T1, cynomolgus monkey PROKR1 (cynomolgus monkey (Macaca fascicularis), UniProt G7PMD0 1-393)
Assay: cell-based or functional assay

T1 sequence (G7PMD0 entry or part of it): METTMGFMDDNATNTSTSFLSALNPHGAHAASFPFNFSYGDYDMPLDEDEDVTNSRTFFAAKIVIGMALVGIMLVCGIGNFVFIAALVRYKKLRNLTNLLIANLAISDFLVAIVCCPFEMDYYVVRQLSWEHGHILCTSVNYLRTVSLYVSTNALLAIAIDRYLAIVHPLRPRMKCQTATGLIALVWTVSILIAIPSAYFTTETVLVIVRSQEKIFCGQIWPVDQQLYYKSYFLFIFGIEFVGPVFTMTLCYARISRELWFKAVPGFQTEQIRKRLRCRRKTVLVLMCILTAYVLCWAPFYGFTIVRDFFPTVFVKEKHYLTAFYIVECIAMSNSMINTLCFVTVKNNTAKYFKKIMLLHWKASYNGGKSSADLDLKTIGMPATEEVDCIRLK

Binder | Block (%), calcium flux, MfPROKR1 + PK1 (5 nM hPK1) [%] | Block (%), calcium flux, MfPROKR1 + PK2 (0.5 nM hPK2) [%] | IC50 (nM), inhibition of calcium flux, MfPROKR1 + PK1 (5 nM hPK1) [nM] | IC50 (nM), inhibition of calcium flux, MfPROKR1 + PK2 (0.5 nM hPK2) [nM]
B1 | 99.3 | 85.7 | 32.9 | 63.9
B2 | 101 | 50.5 | 6.4 | > 300
B3 | 101 | 93.7 | 6.7 | 51.8

Biological target: T2, human PROKR1 (human, UniProt Q8TCW9 1-393)
Assay: cell-based or functional assay

T2 sequence (Q8TCW9 whole entry): as the sequence (G7PMD0 entry or part of it) above, with A22V, A31T, G40S, V82I, I135V, R210K, F246V, N348D, A350V counted along it

Binder | IC50 (nM), blocking of hPK1 induced calcium flux, CHO/hPROKR1 non-induced (40 nM hPK1) [nM] | IC50 (nM), blocking of hPK2 induced calcium flux, CHO/hPROKR1 non-induced (4 nM hPK2) [nM] | IC50 (nM), blocking of hPK1 induced calcium flux, CHO/hPROKR1 non-induced (40 or 80 nM hPK1, average) [nM]
B1 | 3.1 | 27.4 | –
B2 | 4.1 | 21.9 | –
B3 | – | 20 | 14.2

Biological target: T3, human PROKR2(1-53)-hFc (human)
T3 construct: also called soluble human PROKR2 (N-terminal portion)
Assay: SPR (Biacore 4000), 25 C, antibody captured
Protocol: (§1) Kinetic experiments were carried out using HBS-EP (10 mM HEPES, 150 mM NaCl, 3 mM EDTA, 0.05% Surfactant P20, pH 7.4) as both the running buffer and the sample buffer. Antigen-antibody association rates were measured by injecting 2 concentrations (25 and 100 nM) of both human PROKR1 (1-62)-hFc (SEQ ID NO:179) and human PROKR2(1-53)-hFc (SEQ ID NO:180) over the captured antibody surface. Antibody-antigen association was monitored for 90 seconds while dissociation was monitored for 360 seconds. Kinetic on-rate (kₐ) and off-rate (kd) constants were determined from the data using Scrubber software version 2.0 c. Binding dissociation equilibrium constants (KD) and dissociative half-lives (t 1/2) were calculated from the kinetic rate constants as: KD=kd/kₐ and t 1/2=ln(2)/kd.

Binder | binding result
B4 | no binding (tested: 25 and 100 nM antigen injected)
B5 | no binding (tested: 25 and 100 nM antigen injected)
B6 | no binding (tested: 25 and 100 nM antigen injected)

Biological target: T4, mouse PROKR1 (mouse (Mus musculus), UniProt Q9JKL1 1-393)
T4 construct: whole, on cells; Expressed on engineered HEK293 or CHO cells; also called mPROKR1; 293/mPROKR1
Assay: flow cytometry, HEK293 cells expressing the target
Protocol: (§2) Anti-PROKR antibodies generated in accordance with Example 1 were tested for the ability to bind to human, mouse, and monkey PROKR1 and PROKR2. For these experiments, HEK293 cells were engineered to express: human PROKR1; human PROKR2; mouse PROKR1; mouse PROKR2; cynomolgus monkey PROKR1; or cynomolgus monkey PROKR2. Binding of anti-human PROKR antibodies to the PROKR-expressing cell lines was measured by flow cytometry.
(§3) Adherent cells were collected using 1 mM EDTA in PBS, then washed, and re-suspended in cold PBS containing 5% FBS. For the binding experiments, each anti-PROKR antibody was added to 250,000 cells in 500 μl of PBS with 5% FBS (final antibody concentration of 13 nM). After incubation for 20 minutes at room temperature, the cells were washed with PBS containing 5% FBS. A secondary antibody, recognizing either human (Jackson Immuno Research, #115-135-205) or mouse Fc (BD Pharmigen, #550826) and conjugated to allophycyanin, was then added to the cell mixture at a final concentration of 13.3 nM. After incubating for 20 minutes on ice, the cells were washed and resuspended in PBS containing 5% FBS and then sorted and analyzed on a FACSCalibur (BD Biosciences) flow cytometer to determine relative binding by the candidate antibodies. The cell samples containing secondary antibody alone were used as negative control for FACS gating. Histograms of cells stained with anti-human PROKR antibodies were compared with cells stained with secondary alone. […] ND=not determined.

T4 sequence (Q9JKL1 whole entry): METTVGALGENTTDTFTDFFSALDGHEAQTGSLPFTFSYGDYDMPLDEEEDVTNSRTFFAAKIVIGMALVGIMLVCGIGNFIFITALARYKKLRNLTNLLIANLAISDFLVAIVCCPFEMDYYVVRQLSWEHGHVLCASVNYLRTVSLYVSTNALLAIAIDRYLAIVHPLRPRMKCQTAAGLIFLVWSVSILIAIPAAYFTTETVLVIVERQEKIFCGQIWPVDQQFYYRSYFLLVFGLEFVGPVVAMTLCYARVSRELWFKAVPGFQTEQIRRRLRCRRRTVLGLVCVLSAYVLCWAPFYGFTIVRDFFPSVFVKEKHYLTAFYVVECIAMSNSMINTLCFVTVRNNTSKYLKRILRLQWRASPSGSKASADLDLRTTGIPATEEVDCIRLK

Binder | binding result
B7 | no binding

Biological target: T5, human PROKR2 (human, UniProt Q8NFJ6 1-384)
T5 construct: Expressed on engineered HEK293 or CHO cells; also called hPROKR2; prokineticin receptor 2
Assay: flow cytometry, HEK293 cells expressing the target
Protocol: as §2, §3

T5 sequence (Q8NFJ6 whole entry): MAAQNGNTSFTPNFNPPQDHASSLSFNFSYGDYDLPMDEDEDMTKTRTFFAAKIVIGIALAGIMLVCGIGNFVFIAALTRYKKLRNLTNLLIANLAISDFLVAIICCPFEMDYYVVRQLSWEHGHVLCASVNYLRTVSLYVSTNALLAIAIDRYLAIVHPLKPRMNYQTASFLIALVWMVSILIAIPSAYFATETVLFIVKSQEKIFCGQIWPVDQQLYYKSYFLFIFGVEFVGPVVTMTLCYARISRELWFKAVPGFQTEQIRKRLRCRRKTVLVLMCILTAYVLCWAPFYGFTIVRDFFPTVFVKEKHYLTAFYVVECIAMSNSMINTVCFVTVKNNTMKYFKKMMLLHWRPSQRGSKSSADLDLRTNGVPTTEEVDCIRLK

Binder | binding result
B4 | no binding
B5 | no binding
B6 | no binding

Biological target: T1, cynomolgus monkey PROKR1
Assay: flow cytometry, HEK293 cells expressing the target
Protocol: as §2, §3

Binder | binding result
B7 | no binding

Biological target: T6, mouse PROKR2 (mouse (Mus musculus), UniProt Q8K458 1-381)
T6 construct: whole, on cells; Expressed on engineered HEK293 or CHO cells; also called mPROKR2; CHO/mPROKR2
Assay: flow cytometry, HEK293 cells expressing the target, 13 nM antibody
Protocol: as §2, §3

T6 sequence (Q8K458 whole entry): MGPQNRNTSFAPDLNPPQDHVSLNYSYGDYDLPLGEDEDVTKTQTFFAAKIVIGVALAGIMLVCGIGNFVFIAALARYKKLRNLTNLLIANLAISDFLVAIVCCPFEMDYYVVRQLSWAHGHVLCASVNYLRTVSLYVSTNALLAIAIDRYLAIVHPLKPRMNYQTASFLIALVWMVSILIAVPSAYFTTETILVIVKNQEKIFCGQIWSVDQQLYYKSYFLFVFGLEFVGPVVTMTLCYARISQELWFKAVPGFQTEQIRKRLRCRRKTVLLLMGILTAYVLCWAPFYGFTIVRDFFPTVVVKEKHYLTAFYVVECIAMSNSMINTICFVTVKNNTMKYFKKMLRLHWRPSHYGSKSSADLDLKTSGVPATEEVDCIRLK

Binder | binding result
B1 | binds
B2 | binds
B7 | binds

Biological target: T5, human PROKR2
Assay: as above
Protocol: as §2, §3

Binder | binding result
B1 | binds
B2 | binds
B8 | binds
B7 | binds

Biological target: T2, human PROKR1
Assay: cell-based or functional assay
Remark: another data set of the same source

Binder | Block (%), calcium flux, hPROKR1 + PK1 (1 nM hPK1) [%] | Block (%), calcium flux, hPROKR1 + PK2 (1 nM hPK2) [%] | IC50 (nM), inhibition of calcium flux, hPROKR1 + PK1 (1 nM hPK1) [nM] | IC50 (nM), inhibition of calcium flux, hPROKR1 + PK2 (1 nM hPK2) [nM] | Block (%), calcium flux, hPROKR1 + PK1 (20 nM hPK1) [%] | IC50 (nM), inhibition of calcium flux, hPROKR1 + PK1 (20 nM hPK1) [nM]
B1 | 101 | 40 | 8.5 | > 300 | – | –
B2 | 98.5 | 56.6 | 6.6 | > 300 | – | –
B3 | 101 | 77.5 | 6.3 | 55.1 | – | –
B4 | – | – | – | – | 59.1 | 11.2
B5 | – | – | – | – | 52.4 | 14
B6 | – | – | – | – | 45 | 14.5
B9 | – | – | – | – | 51 | 16.4
B8 | – | – | – | – | 15.5 | > 1000

Biological target: T3, human PROKR2(1-53)-hFc
Assay: SPR (Biacore 4000), 25 C, antibody captured, antigen injected at 25 and 100 nM
Protocol: as §1

Binder | Kd [nM] | koff [s⁻¹] | kon [M⁻¹ s⁻¹] | t½ [min]
B1 | 16.1 | 0.00857 | 533000 | 1
B2 | 2.41 | 0.00215 | 891000 | 5
B3 | 11 | 0.00539 | 489000 | 2
B9 | 4.23 | 0.000253 | 59900 | 46
B8 | 129 | 0.0134 | 104000 | 1

Biological target: T7, human PROKR1 (1-62)-hFc (human)
T7 construct: also called soluble human PROKR1 (N-terminal portion)
Assay: as above
Protocol: as §1

T7 sequence (chain, as listed by the source limits assumed): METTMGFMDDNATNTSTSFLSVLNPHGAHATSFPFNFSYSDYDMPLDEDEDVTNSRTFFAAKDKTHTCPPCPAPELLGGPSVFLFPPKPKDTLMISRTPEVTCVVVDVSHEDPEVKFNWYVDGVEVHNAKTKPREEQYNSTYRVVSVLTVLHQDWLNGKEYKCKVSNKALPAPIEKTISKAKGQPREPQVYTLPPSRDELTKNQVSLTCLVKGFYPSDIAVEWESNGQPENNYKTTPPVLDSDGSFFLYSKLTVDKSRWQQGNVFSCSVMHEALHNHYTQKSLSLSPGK

Binder | Kd [nM] | koff [s⁻¹] | kon [M⁻¹ s⁻¹] | t½ [min]
B1 | 1.12 | 0.000287 | 255000 | 40
B2 | 1.07 | 0.000412 | 385000 | 28
B3 | 0.461 | 0.000136 | 294000 | 85
B4 | 1.09 | 0.000213 | 196000 | 54
B5 | 0.264 | 6.23e-05 | 236000 | 186
B6 | 1.83 | 0.000362 | 198000 | 32
B9 | 0.197 | 4.55e-05 | 231000 | 254
B8 | 10.6 | 0.0062 | 583000 | 2

Biological target: T4, mouse PROKR1
Assay: cell-based or functional assay

Binder | Block (%), calcium flux, mPROKR1 + PK1 (1 nM hPK1) [%] | IC50 (nM), inhibition of calcium flux, mPROKR1 + PK1 (1 nM hPK1) [nM]
B1 | 0 | –
B2 | 20.9 | > 300
B3 | 0 | –
B5 | 0 | –
B6 | 0 | –
B9 | 0 | –

Biological target: rat PROKR1 (rat (Rattus norvegicus), UniProt Q8R416 1-393)
Assay: cell-based or functional assay

Sequence of rat PROKR1 (Q8R416 whole entry): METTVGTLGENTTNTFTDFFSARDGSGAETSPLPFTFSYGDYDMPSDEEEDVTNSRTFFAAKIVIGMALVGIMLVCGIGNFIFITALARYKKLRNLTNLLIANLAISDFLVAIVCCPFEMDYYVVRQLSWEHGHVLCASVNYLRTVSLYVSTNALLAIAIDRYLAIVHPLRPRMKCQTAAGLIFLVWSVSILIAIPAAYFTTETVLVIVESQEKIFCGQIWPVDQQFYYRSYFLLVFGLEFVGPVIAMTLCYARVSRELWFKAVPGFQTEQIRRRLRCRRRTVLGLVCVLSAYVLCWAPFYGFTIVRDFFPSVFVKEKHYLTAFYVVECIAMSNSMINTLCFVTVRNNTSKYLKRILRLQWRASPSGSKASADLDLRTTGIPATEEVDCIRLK

Binder | Block (%), calcium flux, rPROKR1 + PK1 (1 nM hPK1) [%]
B1 | 0
B2 | 0
B3 | 0
